# B1: TPR t1 (parent)
# chain: GACCAAUCUGCCCUCAGAGCUCGAGAACAUCUUCGGAUGCAGAGGAGGCAGGCUUCGGUGGCGCGAUAGCGCCAACGUCCUCAACCUCCAAUGCAUCCCACCACAUGAUGAUGCCUGAAGAGCCUUGGUUUUUUG
# Variants of: B1
# Assay: polymerase ribozyme fitness, log enrichment relative to wild type (log ratio); higher = more active; in vitro selection for triplet polymerase activity
# Procedure, shortened: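 Fitness measures genotype enrichment against wild-type enrichment on a logarithmic scale, with inverse-variance-weighted averaging of replicates. The logarithm is base 2, and genotypes were kept only with ≥10 input reads and ≥1 read per output in Illumina sequencing. The sequenced libraries came from one triplicate in vitro selection round, including frozen incubation at −7 °C, of PCR-built, transcribed mutant libraries of each subunit of a heterodimeric triplet polymerase ribozyme.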
row,Variant,polymerase ribozyme fitness (log ratio)
1,C80U C98U,-1.69
2,U78C C85G,-1.82
3,C73U A75G G77A U109G,-6.15
4,C76U G113U,-2.36
5,U78A C80A C94G U133A,-6.19
6,U78G C80U G93U,-1.61
7,G77C C94U,-0.725
8,U78G C88U A91U A95U,-3.4
9,C79U C94U C98U,-1.64
10,C79G U126A G128U,-4.31
11,C73U U106A,-0.212
12,G77C U125C,-3.91
13,G77U C94U,0.0625
14,C73U C98A,-4.94
15,C73U C79A A90C C115A,-2.96
16,U78A C124G,1.42
17,A75G C88G,-1.04
18,G77C U106A A111C C114G U131C,-5.23
19,G77U C115G G128C,-2.98
20,C73G C104A,-1.94
21,C73A U106G G110C,-4.6
22,C72U U133G,-0.942
23,C79A C88U C101U,-0.735
24,U78C C88G,-0.636

row,Variant,polymerase ribozyme fitness (log ratio)
1,U78C U106A,0.00582
2,C76A C89A U133C,-2.43
3,C73G C86U,-1.29
4,C73G C86G,-2.52
5,C79A G107A G117U,-6.98
6,C76A G117A C124A,-0.549
7,U78C A118U,0.929
8,C80A U129A,-3.77
9,C73U U125A,-0.171
10,C79U U106A U116C U126C,-1.17
11,C73G A83U C88G U130A,-3.2
12,C73A G113C,-2.27
13,C79G C82U U130A,-2.13
14,G77A C104A G128A,-3.06
15,A75G A83C G93C,-1.73
16,C73G C94A C102U,-3.82
17,C76G C82G G128U,-3.7
18,C73A A84U C88A G110A C123A U126C,-4.76
19,C79A U112C G127A,-1.43
20,U78A C115G,-2.13
21,C73U C76G U112G,-1.81
22,C73U C82A,0.468
23,G77A U96G,-1.12
24,C73A C88G A111U U129G,-5.91

row,Variant,polymerase ribozyme fitness (log ratio)
1,A74U C114G C124A U125C,-1.43
2,U78G U109A,-6.21
3,C73G U116C U131A,-1.53
4,C79G A83G C89G,-3.62
5,U81A A90U,-2.41
6,C73U U96A,-1.16
7,A75U C76G C88A A90U C114U,-2.85
8,C73U U78C U92G,-2.25
9,C80A A84G C98U,-6.69
10,U78G G93A G120U,-0.265
11,C72U U126C,-0.816
12,G77U C89U A91U U116C G120C G135A,-2.85
13,C73U C104U C115A,0.332
14,U78C C94U,-0.58
15,G77U U132A,-0.53
16,C79G C101A G135U,-4.68
17,C79U G122U,0.0245
18,C73U C124U,1.94
19,U78A G122A,-1.42
20,C80U U106A,-0.267
21,G77C G117C,-4.29
22,U78C U92G C114U,-2.3
23,C79G U96A,-2.96
24,C79G C123U,0.127

row,Variant,polymerase ribozyme fitness (log ratio)
1,U78C C94G A108G C114G U130G,-5.42
2,A74U C104A C124G,0.0488
3,C73A C86U A100U C102A,-2.87
4,C73G C115U,-1.97
5,C73G C115G,-0.331
6,C73G C102A,-2.76
7,A74C U78G C80U C115A,-2.23
8,C79A C85U,-2.34
9,U78C G117A,-1.35
10,U78C G117C,-3.6
11,C73A U129C,-0.459
12,G77A C88G,-0.754
13,C73A C124G,0.687
14,C79A U129A,-2.44
15,U78A C89U C104U,-1.1
16,C73G A90G C104U U112C A121U U130C,1.89
17,U78C A121U,1.42
18,C73U U132C,-0.238
19,A75U C97A,-5.53
20,C73U C97U C102A U130C,-2.5
21,C73A C104A,-1.07
22,C72U U92A A95U,-4.07
23,U78C G113A,-1.36
24,C73U C101G G120U,-0.999

row,Variant,polymerase ribozyme fitness (log ratio)
1,G77A U78C C115G,-2.5
2,C79A C101U,-1.4
3,G77C C115A,0.325
4,C73A C102U G128C,-3.88
5,C72U U96G U126C,-1.75
6,C73G G120A U129G,-1.1
7,G77U C124G,1.96
8,U78C C80G A121G,-2.75
9,C79U G93A C102A,-2.33
10,G77U U81G,-3.24
11,U81A A91G U92G,-4.76
12,A74G G77U C123U,0.945
13,U78G C114U,-2.96
14,U78G C88U U92G G120C U134G,-1.71
15,C79G U81A C98U C102G G107C,-7.84
16,C73U C86G C115G U129A,-5.03
17,U78C G127U,-1.04
18,U78A C114A,-1.63
19,C73U U81A,-3.27
20,U78A U92G U125G,-4.08
21,U78C G93U C124A,0.632
22,A75G C114A,-2.36
23,A75G C123U,1.55
24,A75U C82G U96A C115G,-3.29

row,Variant,polymerase ribozyme fitness (log ratio)
1,C80G U87A U116G A119U C124G,-6.5
2,C76U U81A,-0.892
3,C73A C86U C124A,1.85
4,C76U A105C,-2.5
5,G77C C114A G127C,-2.76
6,C73U A74G C99U,-3.36
7,A74U U96C,-0.884
8,C76U G110C,-4.7
9,A74C U106A C123U,1.18
10,C79A A95G C101U C123U,-4.17
11,A74U G110C,-4.41
12,C79A G113C,-3.64
13,C73G G110A,-1.17
14,C79A C94A,-2.38
15,C73A A90U A105G G113C G122C,-3.65
16,C72U U87A,-0.188
17,U78C U87C C115U,-0.381
18,A74U A121U C124A,1.47
19,C73G A121C,1.42
20,U78G C89A G117A,-4.25
21,A74C G113U C115U G117A C123A,-6.47
22,C73G A103C,-4.89
23,C73G U109G,-6.77
24,C73G U109A,-5.36

row,Variant,polymerase ribozyme fitness (log ratio)
1,U78C U130C,0.0983
2,C79U C89U C102U G120C,-2.83
3,C76U U112A U116G,-2.03
4,C73U U78A C88G G120U,-1.15
5,U78A G117A,-1.76
6,A74U C101U G113A C123G,-1.64
7,C76A A121U U125G,0.374
8,C79U G113U U116A,-5.49
9,G77U G113A,-1.38
10,C80A U109G,-5.76
11,C80A U109A,-6.3
12,G77U C88G,-1.02
13,A74C C101U U132C,-0.834
14,A74U U125A U131G,-0.852
15,C76A G93C C94A U112G,-4.68
16,C73G U129G,-2.27
17,C79U U81A,-1.75
18,G77U A91U U133C,-1.24
19,C73G G127A,-1.82
20,A75G C80A G128U U133C G135C,-4.6
21,C73A C86U,1.13
22,C79U C94A,-4.5
23,C79U C94G,-0.831
